The target of experiment [1] is B41 SOSIP.664 trimer (HIV-1). Nature of the experiment: cross-linking.
Experiment [2] addresses BG505 SOSIP.664 trimer, unmodified (HIV-1). The experiment can be described thus: cross-linking.

On to B41 SOSIP.664 trimer (complex), for which the stoichiometry N in experiment [1] came to 3.
In turn, “BG505 SOSIP.664 trimer, unmodified (complex)” showed a stoichiometry N in experiment [2] of 3.

Broadly, the stoichiometry N is the number of molecules, sites or subunits per partner or assembly.

These data come from article PMC4702668.
